Source: patent publication US20020132976A1, “Immunogenic peptides derived from prostate-specific antigen (PSA) and uses thereof” (priority 2000, published 2002)

Assays:
[1] = target: membrane-bound HLA-A0201 molecule on T2 cells (human); assay: T2 cell HLA-A0201 stabilisation, 125.0 µM peptide, BB7.2 staining, flow cytometry; analysis did not include the 3 hr de-stabilization step; conditions: remark: other sources report otherwise
[2] = target: membrane-bound HLA-A0201 molecule on T2 cells (human); assay: T2 cell HLA-A0201 stabilisation, 125.0 µM peptide, BB7.2 staining, flow cytometry; conditions: remark: other sources report otherwise

| Binder | Fluorescence Index (FI) [1] | Fluorescence Index (FI) [2] |
| --- | --- | --- |
| PLYDMSLLK [CLP-320] | 0.2 | – |
| KLQCVDLHV [CLP-316] | – | 2.7 |
